Assay results as given in patent US20260193293A1, “PEPTIDES CAPABLE OF INHIBITING PROTEIN-PROTEIN INTERACTIONS AT GABAB1A SUBUNIT AND USES THEREOF” (UNIVERSITY OF COPENHAGEN, priority 2022, published 2026).
Starred links: 1 amine or outer side, 2 acyl side, 3 side chain; linkers in the order of their positions; H or OH if unused. Non-standard residues stand in square brackets, D forms with d. Tyr(Bzl) = Obtyr, O-benzyl-L-tyrosine, O=C([C@H](Cc1ccc(OCc2ccccc2)cc1)N[*:1])[*:2]; Tyr(Et) = Oetyr, O-ethyl-L-tyrosine, CCOc1ccc(C[C@H](N[*:1])C(=O)[*:2])cc1; Obtyr = O-benzyl-L-tyrosine, O=C([C@H](Cc1ccc(OCc2ccccc2)cc1)N[*:1])[*:2]; Oetyr = O-ethyl-L-tyrosine, CCOc1ccc(C[C@H](N[*:1])C(=O)[*:2])cc1; 1Nal = N[C@@H](Cc1cccc2ccccc12)C(=O)O; 2Nal = N[C@@H](Cc1ccc2ccccc2c1)C(=O)O; Cya = N[C@@H](CS(=O)(=O)O)C(=O)O; 4Pal = N[C@@H](Cc1ccncc1)C(=O)O

How the values were obtained:
[1] = target: Sushi domains (SD1/2) protein of GABAB1a (GB1a); experiment: FP competition vs TAMRA AJAP-1probe
[2] = target: Sushi domains (SD1/2) protein of the GABAB1a (GB1a) subunit, recombinant; experiment: FP competition
Sequence of Sushi domains (SD1/2) protein of the GABAB1a (GB1a) subunit, recombinant (Q9Z0U4 29-158): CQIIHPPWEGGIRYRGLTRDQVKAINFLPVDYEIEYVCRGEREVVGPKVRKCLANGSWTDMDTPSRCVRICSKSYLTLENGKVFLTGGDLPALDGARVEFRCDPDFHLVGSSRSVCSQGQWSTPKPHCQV

Sequence of Sushi domains (SD1/2) protein of GABAB1a (GB1a) (Q9Z0U4 29-158): as above

Binder	Ki [1] [nM]	Ki [2] [nM]	fold increased affinity compared to Asp207Trp [2] [fold]
Ac-EDDD[Oetyr]IDWYDSDDD-NH2 (SMILES CCOc1ccc(C[C@H](NC(=O)[C@H](CC(=O)O)NC(=O)[C@H](CC(=O)O)NC(=O)[C@H](CC(=O)O)NC(=O)[C@H](CCC(=O)O)NC(C)=O)C(=O)N[C@H](C(=O)N[C@@H](CC(=O)O)C(=O)N[C@@H](Cc2c[nH]c3ccccc23)C(=O)N[C@@H](Cc2ccc(O)cc2)C(=O)N[C@@H](CC(=O)O)C(=O)N[C@@H](CO)C(=O)N[C@@H](CC(=O)O)C(=O)N[C@@H](CC(=O)O)C(=O)N[C@@H](CC(=O)O)C(N)=O)[C@@H](C)CC)cc1) [peptide 32]	5.3	–	–
Ac-EDDSDVWW[2Nal]GADTD-NH2 (SMILES CC(=O)N[C@@H](CCC(=O)O)C(=O)N[C@@H](CC(=O)O)C(=O)N[C@@H](CC(=O)O)C(=O)N[C@@H](CO)C(=O)N[C@@H](CC(=O)O)C(=O)N[C@H](C(=O)N[C@@H](Cc1c[nH]c2ccccc12)C(=O)N[C@@H](Cc1c[nH]c2ccccc12)C(=O)N[C@@H](Cc1ccc2ccccc2c1)C(=O)NCC(=O)N[C@@H](C)C(=O)N[C@@H](CC(=O)O)C(=O)N[C@H](C(=O)N[C@@H](CC(=O)O)C(N)=O)[C@@H](C)O)C(C)C) [EDDSDVWW(2Nala)GADTD]	75	100	–
Ac-EDDD[Oetyr]IDWGPTSDDD-NH2 (SMILES CCOc1ccc(C[C@H](NC(=O)[C@H](CC(=O)O)NC(=O)[C@H](CC(=O)O)NC(=O)[C@H](CC(=O)O)NC(=O)[C@H](CCC(=O)O)NC(C)=O)C(=O)N[C@H](C(=O)N[C@@H](CC(=O)O)C(=O)N[C@@H](Cc2c[nH]c3ccccc23)C(=O)NCC(=O)N2CCC[C@H]2C(=O)N[C@H](C(=O)N[C@@H](CO)C(=O)N[C@@H](CC(=O)O)C(=O)N[C@@H](CC(=O)O)C(=O)N[C@@H](CC(=O)O)C(N)=O)[C@@H](C)O)[C@@H](C)CC)cc1) [peptide 34]	6.5	–	–
Ac-EDDSDVW[2Nal]GGADTD-NH2 (SMILES CC(=O)N[C@@H](CCC(=O)O)C(=O)N[C@@H](CC(=O)O)C(=O)N[C@@H](CC(=O)O)C(=O)N[C@@H](CO)C(=O)N[C@@H](CC(=O)O)C(=O)N[C@H](C(=O)N[C@@H](Cc1c[nH]c2ccccc12)C(=O)N[C@@H](Cc1ccc2ccccc2c1)C(=O)NCC(=O)NCC(=O)N[C@@H](C)C(=O)N[C@@H](CC(=O)O)C(=O)N[C@H](C(=O)N[C@@H](CC(=O)O)C(N)=O)[C@@H](C)O)C(C)C) [EDDSDVW(2Nala)GGADTD]	814	–	–
Ac-ETEFI[Cya]WGPTGDED-NH2 (SMILES CC[C@H](C)[C@H](NC(=O)[C@H](Cc1ccccc1)NC(=O)[C@H](CCC(=O)O)NC(=O)[C@@H](NC(=O)[C@H](CCC(=O)O)NC(C)=O)[C@@H](C)O)C(=O)N[C@@H](CS(=O)(=O)O)C(=O)N[C@@H](Cc1c[nH]c2ccccc12)C(=O)NCC(=O)N1CCC[C@H]1C(=O)N[C@H](C(=O)NCC(=O)N[C@@H](CC(=O)O)C(=O)N[C@@H](CCC(=O)O)C(=O)N[C@@H](CC(=O)O)C(N)=O)[C@@H](C)O) [ETEFI(Cya)WGPTGDED]	12	–	–
Ac-EDDSDVW[Tyr(Bzl)]GGADTD-NH2 (SMILES CC(=O)N[C@@H](CCC(=O)O)C(=O)N[C@@H](CC(=O)O)C(=O)N[C@@H](CC(=O)O)C(=O)N[C@@H](CO)C(=O)N[C@@H](CC(=O)O)C(=O)N[C@H](C(=O)N[C@@H](Cc1c[nH]c2ccccc12)C(=O)N[C@@H](Cc1ccc(OCc2ccccc2)cc1)C(=O)NCC(=O)NCC(=O)N[C@@H](C)C(=O)N[C@@H](CC(=O)O)C(=O)N[C@H](C(=O)N[C@@H](CC(=O)O)C(N)=O)[C@@H](C)O)C(C)C) [EDDSDVW(Obtyr)GGADTD]	3860	–	–
Ac-EDDS[4Pal]VWWGGADTD-NH2 (SMILES CC(=O)N[C@@H](CCC(=O)O)C(=O)N[C@@H](CC(=O)O)C(=O)N[C@@H](CC(=O)O)C(=O)N[C@@H](CO)C(=O)N[C@@H](Cc1ccncc1)C(=O)N[C@H](C(=O)N[C@@H](Cc1c[nH]c2ccccc12)C(=O)N[C@@H](Cc1c[nH]c2ccccc12)C(=O)NCC(=O)NCC(=O)N[C@@H](C)C(=O)N[C@@H](CC(=O)O)C(=O)N[C@H](C(=O)N[C@@H](CC(=O)O)C(N)=O)[C@@H](C)O)C(C)C) [EDDS(4Pal)…]	424	–	–
Ac-[2Nal]EDSDDYDDIDDDW-NH2 (SMILES CC[C@H](C)[C@H](NC(=O)[C@H](CC(=O)O)NC(=O)[C@H](CC(=O)O)NC(=O)[C@H](Cc1ccc(O)cc1)NC(=O)[C@H](CC(=O)O)NC(=O)[C@H](CC(=O)O)NC(=O)[C@H](CO)NC(=O)[C@H](CC(=O)O)NC(=O)[C@H](CCC(=O)O)NC(=O)[C@H](Cc1ccc2ccccc2c1)NC(C)=O)C(=O)N[C@@H](CC(=O)O)C(=O)N[C@@H](CC(=O)O)C(=O)N[C@@H](CC(=O)O)C(=O)N[C@@H](Cc1c[nH]c2ccccc12)C(N)=O) [Scr-20]	31200	–	–
Ac-EDDD[2Nal]IDWGPTSDDD-NH2 (SMILES CC[C@H](C)[C@H](NC(=O)[C@H](Cc1ccc2ccccc2c1)NC(=O)[C@H](CC(=O)O)NC(=O)[C@H](CC(=O)O)NC(=O)[C@H](CC(=O)O)NC(=O)[C@H](CCC(=O)O)NC(C)=O)C(=O)N[C@@H](CC(=O)O)C(=O)N[C@@H](Cc1c[nH]c2ccccc12)C(=O)NCC(=O)N1CCC[C@H]1C(=O)N[C@H](C(=O)N[C@@H](CO)C(=O)N[C@@H](CC(=O)O)C(=O)N[C@@H](CC(=O)O)C(=O)N[C@@H](CC(=O)O)C(N)=O)[C@@H](C)O) [peptide 21]	5.3	–	–
Ac-EDDD[Obtyr]IDWYDSDDD-NH2 (SMILES CC[C@H](C)[C@H](NC(=O)[C@H](Cc1ccc(OCc2ccccc2)cc1)NC(=O)[C@H](CC(=O)O)NC(=O)[C@H](CC(=O)O)NC(=O)[C@H](CC(=O)O)NC(=O)[C@H](CCC(=O)O)NC(C)=O)C(=O)N[C@@H](CC(=O)O)C(=O)N[C@@H](Cc1c[nH]c2ccccc12)C(=O)N[C@@H](Cc1ccc(O)cc1)C(=O)N[C@@H](CC(=O)O)C(=O)N[C@@H](CO)C(=O)N[C@@H](CC(=O)O)C(=O)N[C@@H](CC(=O)O)C(=O)N[C@@H](CC(=O)O)C(N)=O) [peptide 33]	9.3	–	–
EDDDAIDWYDSDDD (N-terminal acetyl; C-terminal amide; 2Nala (3-(2-naphthyl)-L-alanine) at position 5) [peptide 20]	1.5	–	–
Ac-EDDS[Tyr(Et)]VWWGGADTD-NH2 (SMILES CCOc1ccc(C[C@H](NC(=O)[C@H](CO)NC(=O)[C@H](CC(=O)O)NC(=O)[C@H](CC(=O)O)NC(=O)[C@H](CCC(=O)O)NC(C)=O)C(=O)N[C@H](C(=O)N[C@@H](Cc2c[nH]c3ccccc23)C(=O)N[C@@H](Cc2c[nH]c3ccccc23)C(=O)NCC(=O)NCC(=O)N[C@@H](C)C(=O)N[C@@H](CC(=O)O)C(=O)N[C@H](C(=O)N[C@@H](CC(=O)O)C(N)=O)[C@@H](C)O)C(C)C)cc1) [EDDS(Oetyr)…]	46	46.3	2
Ac-EDDS[2Nal]VWWGGADTD-NH2 (SMILES CC(=O)N[C@@H](CCC(=O)O)C(=O)N[C@@H](CC(=O)O)C(=O)N[C@@H](CC(=O)O)C(=O)N[C@@H](CO)C(=O)N[C@@H](Cc1ccc2ccccc2c1)C(=O)N[C@H](C(=O)N[C@@H](Cc1c[nH]c2ccccc12)C(=O)N[C@@H](Cc1c[nH]c2ccccc12)C(=O)NCC(=O)NCC(=O)N[C@@H](C)C(=O)N[C@@H](CC(=O)O)C(=O)N[C@H](C(=O)N[C@@H](CC(=O)O)C(N)=O)[C@@H](C)O)C(C)C) [EDDS(2Nala)…]	43	–	2
Ac-EDDS[Tyr(Bzl)]VWWGGADTD-NH2 (SMILES CC(=O)N[C@@H](CCC(=O)O)C(=O)N[C@@H](CC(=O)O)C(=O)N[C@@H](CC(=O)O)C(=O)N[C@@H](CO)C(=O)N[C@@H](Cc1ccc(OCc2ccccc2)cc1)C(=O)N[C@H](C(=O)N[C@@H](Cc1c[nH]c2ccccc12)C(=O)N[C@@H](Cc1c[nH]c2ccccc12)C(=O)NCC(=O)NCC(=O)N[C@@H](C)C(=O)N[C@@H](CC(=O)O)C(=O)N[C@H](C(=O)N[C@@H](CC(=O)O)C(N)=O)[C@@H](C)O)C(C)C) [EDDS(Obtyr)…]	28	27.1	4
Ac-EDDD[Obtyr]IDWGPTSDDD-NH2 (SMILES CC[C@H](C)[C@H](NC(=O)[C@H](Cc1ccc(OCc2ccccc2)cc1)NC(=O)[C@H](CC(=O)O)NC(=O)[C@H](CC(=O)O)NC(=O)[C@H](CC(=O)O)NC(=O)[C@H](CCC(=O)O)NC(C)=O)C(=O)N[C@@H](CC(=O)O)C(=O)N[C@@H](Cc1c[nH]c2ccccc12)C(=O)NCC(=O)N1CCC[C@H]1C(=O)N[C@H](C(=O)N[C@@H](CO)C(=O)N[C@@H](CC(=O)O)C(=O)N[C@@H](CC(=O)O)C(=O)N[C@@H](CC(=O)O)C(N)=O)[C@@H](C)O) [peptide 35]	9.5	–	–
Ac-EDDSDVW[1Nal]GGADTD-NH2 (SMILES CC(=O)N[C@@H](CCC(=O)O)C(=O)N[C@@H](CC(=O)O)C(=O)N[C@@H](CC(=O)O)C(=O)N[C@@H](CO)C(=O)N[C@@H](CC(=O)O)C(=O)N[C@H](C(=O)N[C@@H](Cc1c[nH]c2ccccc12)C(=O)N[C@@H](Cc1cccc2ccccc12)C(=O)NCC(=O)NCC(=O)N[C@@H](C)C(=O)N[C@@H](CC(=O)O)C(=O)N[C@H](C(=O)N[C@@H](CC(=O)O)C(N)=O)[C@@H](C)O)C(C)C) [EDDSDVW(1Nala)GGADTD]	499	–	–
Ac-EDDSDVWW[1Nal]GADTD-NH2 (SMILES CC(=O)N[C@@H](CCC(=O)O)C(=O)N[C@@H](CC(=O)O)C(=O)N[C@@H](CC(=O)O)C(=O)N[C@@H](CO)C(=O)N[C@@H](CC(=O)O)C(=O)N[C@H](C(=O)N[C@@H](Cc1c[nH]c2ccccc12)C(=O)N[C@@H](Cc1c[nH]c2ccccc12)C(=O)N[C@@H](Cc1cccc2ccccc12)C(=O)NCC(=O)N[C@@H](C)C(=O)N[C@@H](CC(=O)O)C(=O)N[C@H](C(=O)N[C@@H](CC(=O)O)C(N)=O)[C@@H](C)O)C(C)C) [EDDSDVWW(1Nala)GADTD]	114	100	–
